Source: patent US20240317834A1, “COMPOSITIONS AND METHODS FOR NEUROLOGICAL DISEASES” (CODA BIOTHERAPEUTICS, INC., priority 2020, published 2024)
Substitutions are numbered along the chain they refer to. In names and notes the source's numbering stands.

Tested on: Lenti-X 293T cells
Experiment: YFP fluorescence quenching anion reporter plate reader assay of engineered receptors stimulated with acetylcholine or a non-native ligand
Type: cell-based
Settings: for percent quench of YFP fluorescence, 30 nM TC-6683: TC-6683 30 nM; for percent quench of YFP fluorescence, 300 nM TC-6683: TC-6683 300 nM; for percent quench of YFP fluorescence, 3 uM TC-6683: TC-6683 3 uM; for percent quench of YFP fluorescence, 30 uM TC-6683: TC-6683 30 uM; for percent quench of YFP fluorescence, 100 uM TC-6683: TC-6683 100 uM; for percent quench of YFP fluorescence, 10 uM ach: acetylcholine 10 uM; for percent quench of YFP fluorescence, 100 uM ach: acetylcholine 100 uM; for percent quench of YFP fluorescence, 1 mM ach: acetylcholine 1 mM; for percent quench of YFP fluorescence, 3 mM ach: acetylcholine 3 mM
Method in brief: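 Lenti-X 293T cells carrying a YFP anion reporter were transiently transfected with channel DNA and assayed the next day in HEPES-buffered ECS at pH 7.2. Ligand (acetylcholine or non-native ligand) was added in NaI-substituted ECS. Percent quench was the mean of the last 10 s relative to the 15 s pre-addition baseline.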

B1: CODA334: engineered chimeric LGIC receptor, L131Q in SEQ ID NO: 33 (protein)
chain: MRCSPGGVWLALAASLLHVSLQGEFQRKLYKELVKNYNPLERPVANDSQPLTVYFSLSLLQIMDVDEKNQVLTTNIWLQMSWTDHYLQWNVSEYPGVKTVRFPDGQIWKPDILLYNSADERFDATFHTNVQVNSSGHCQYLPPGIFKSSCPMDLKNFPMDVQTCKLKFGSWSYGGWSLDLQMQEADISGYIPNGEWDLVGIPGKRSERFYECCKEPYPDVTFTVTMRRRMGYYLIQMYIPSLLIVILSWISFWINMDAAPARVGLGITTVLTMTTQSSGSRASLPKVSYVKAIDIWMAVCLLFVFSALLEYAAVNFVSRQHKELLRFRRKRRHHKSPMLNLFQEDEAGEGRFNFSAYGMGPACLQAKDGISVKGANNSNTTNPPPAPSKSPEEMRKLFIQRAKKIDKISRIGFPMAFLIFNMFYWIIYKIVRREDVHNQ
modifications: synthetic sequence of chimeric LGIC
1 nM CNL001, first column
  YFP fluorescence quenching using CNL001: 76.165%
1 nM CNL001, second column
  YFP fluorescence quenching using CNL001: 78.463%
3 nM brd
  YFP fluorescence quenching using TC-5619/Bradanicline: 41.92%
3 nM var, first column
  YFP fluorescence quenching using Varenicline: −5.192
3 nM var, second column
  YFP fluorescence quenching using Varenicline: −4.327
10 nM CNL001, first column
  YFP fluorescence quenching using CNL001: 79.349%
10 nM CNL001, second column
  YFP fluorescence quenching using CNL001: 78.238%
30 nM brd
  YFP fluorescence quenching using TC-5619/Bradanicline: 63.65%
30 nM fac
  YFP fluorescence quenching using Facinicline: 83.07
30 nM var, first column
  YFP fluorescence quenching using Varenicline: −0.688
30 nM var, second column
  YFP fluorescence quenching using Varenicline: 0.672
50 nM CNL001, first column
  YFP fluorescence quenching using CNL001: 80.221%
50 nM CNL001, second column
  YFP fluorescence quenching using CNL001: 81.789%
50 nM abt
  YFP fluorescence quenching using ABT-126: 23.65%
100 nM CNL001, first column
  YFP fluorescence quenching using CNL001: 82%
100 nM CNL001, second column
  YFP fluorescence quenching using CNL001: 80.766%
100 nM CNL002
  YFP fluorescence quenching using CNL002: 49.9%
100 nM abt
  YFP fluorescence quenching using ABT-126: 61.83%
100 nM azd0328
  YFP fluorescence quenching using AZD-0328: 80.55%
100 nM fac
  YFP fluorescence quenching using Facinicline: 85.36
300 nM abt
  YFP fluorescence quenching using ABT-126: 76.44%
300 nM azd0328
  YFP fluorescence quenching using AZD-0328: 83.15%
300 nM brd
  YFP fluorescence quenching using TC-5619/Bradanicline: 64.85%
300 nM fac
  YFP fluorescence quenching using Facinicline: 84.19
300 nM var, first column
  YFP fluorescence quenching using Varenicline: 75.189
300 nM var, second column
  YFP fluorescence quenching using Varenicline: 74.923
500 nM var, first column
  YFP fluorescence quenching using Varenicline: 79.048
500 nM var, second column
  YFP fluorescence quenching using Varenicline: 80.337
1 uM CNL001, first column
  YFP fluorescence quenching using CNL001: 81.707%
1 uM CNL001, second column
  YFP fluorescence quenching using CNL001: 82.665%
1 uM CNL002
  YFP fluorescence quenching using CNL002: 80.72%
1 uM abt
  YFP fluorescence quenching using ABT-126: 77.68%
1 uM tc6987
  YFP fluorescence quenching using TC-6987: 74.1
1 uM var, first column
  YFP fluorescence quenching using Varenicline: 79.766
1 uM var, second column
  YFP fluorescence quenching using Varenicline: 76.836
10 uM tc6987
  YFP fluorescence quenching using TC-6987: 81.7
30 uM CNL002
  YFP fluorescence quenching using CNL002: 80.97%
30 uM azd0328
  YFP fluorescence quenching using AZD-0328: 82.53%
30 uM fac
  YFP fluorescence quenching using Facinicline: 82.75
500 uM tc6987
  YFP fluorescence quenching using TC-6987: 80.18
  percent quench of YFP fluorescence, 30 nM TC-6683: −17.99%
  percent quench of YFP fluorescence, 300 nM TC-6683: −23.26%
  percent quench of YFP fluorescence, 3 uM TC-6683: −18.84%
  percent quench of YFP fluorescence, 30 uM TC-6683: −16.92%
  percent quench of YFP fluorescence, 100 uM TC-6683: −15.59%
  percent quench of YFP fluorescence, 10 uM ach: −2.63%
  percent quench of YFP fluorescence, 100 uM ach: 71.27%
  percent quench of YFP fluorescence, 1 mM ach: 79.66%
  percent quench of YFP fluorescence, 3 mM ach: 74.9%
Acetylcholine 30 uM
  percent quench of YFP fluorescence, 30 uM ach: 30.06%

B2: CODA335: engineered chimeric LGIC receptor, L131T in SEQ ID NO: 33 (protein)
chain: B1 chain with Q131T
modifications: synthetic sequence of chimeric LGIC
1 nM CNL001, first column
  YFP fluorescence quenching using CNL001: −9.942%
1 nM CNL001, second column
  YFP fluorescence quenching using CNL001: −0.475%
1 nM brd
  YFP fluorescence quenching using TC-5619/Bradanicline: −2.39%
3 nM brd
  YFP fluorescence quenching using TC-5619/Bradanicline: −4.08%
3 nM var, first column
  YFP fluorescence quenching using Varenicline: 0.398
3 nM var, second column
  YFP fluorescence quenching using Varenicline: 3.947
10 nM CNL001, first column
  YFP fluorescence quenching using CNL001: 17.889%
10 nM CNL001, second column
  YFP fluorescence quenching using CNL001: 38.46%
10 nM brd
  YFP fluorescence quenching using TC-5619/Bradanicline: −3.3%
30 nM brd
  YFP fluorescence quenching using TC-5619/Bradanicline: −9.69%
30 nM fac
  YFP fluorescence quenching using Facinicline: 1.24
30 nM var, first column
  YFP fluorescence quenching using Varenicline: 5.31
30 nM var, second column
  YFP fluorescence quenching using Varenicline: 7.666
50 nM CNL001, first column
  YFP fluorescence quenching using CNL001: 61.741%
50 nM CNL001, second column
  YFP fluorescence quenching using CNL001: 69.159%
50 nM abt
  YFP fluorescence quenching using ABT-126: −18%
100 nM CNL001, first column
  YFP fluorescence quenching using CNL001: 73.635%
100 nM CNL001, second column
  YFP fluorescence quenching using CNL001: 76.092%
100 nM CNL002
  YFP fluorescence quenching using CNL002: −14.53%
100 nM abt
  YFP fluorescence quenching using ABT-126: −16.39%
100 nM azd0328
  YFP fluorescence quenching using AZD-0328: 11.33%
100 nM brd
  YFP fluorescence quenching using TC-5619/Bradanicline: −1.05%
300 nM abt
  YFP fluorescence quenching using ABT-126: −15.05%
300 nM azd0328
  YFP fluorescence quenching using AZD-0328: 44.15%
300 nM brd
  YFP fluorescence quenching using TC-5619/Bradanicline: 10.53%
300 nM fac
  YFP fluorescence quenching using Facinicline: 46.92
300 nM var, first column
  YFP fluorescence quenching using Varenicline: 4.327
300 nM var, second column
  YFP fluorescence quenching using Varenicline: 3.275
500 nM var, first column
  YFP fluorescence quenching using Varenicline: 1.835
500 nM var, second column
  YFP fluorescence quenching using Varenicline: 4.863
1 uM CNL001, first column
  YFP fluorescence quenching using CNL001: 80.633%
1 uM CNL001, second column
  YFP fluorescence quenching using CNL001: 79.637%
1 uM CNL002
  YFP fluorescence quenching using CNL002: 6.45%
1 uM abt
  YFP fluorescence quenching using ABT-126: −5.56%
1 uM brd
  YFP fluorescence quenching using TC-5619/Bradanicline: 34.72%
1 uM tc6987
  YFP fluorescence quenching using TC-6987: −0.14
1 uM var, first column
  YFP fluorescence quenching using Varenicline: 9.471
1 uM var, second column
  YFP fluorescence quenching using Varenicline: 7.505
3 uM tc6987
  YFP fluorescence quenching using TC-6987: −8.32
5 uM tc6987
  YFP fluorescence quenching using TC-6987: −2.13
10 uM fac
  YFP fluorescence quenching using Facinicline: 79.06
10 uM tc6987
  YFP fluorescence quenching using TC-6987: 0.13
30 uM CNL002
  YFP fluorescence quenching using CNL002: 57.43%
30 uM azd0328
  YFP fluorescence quenching using AZD-0328: 80.96%
30 uM fac
  YFP fluorescence quenching using Facinicline: 81.06
30 uM tc6987
  YFP fluorescence quenching using TC-6987: −6.86
50 uM tc6987
  YFP fluorescence quenching using TC-6987: −9.5
100 uM tc6987
  YFP fluorescence quenching using TC-6987: −10.98
300 uM tc6987
  YFP fluorescence quenching using TC-6987: −12.16
500 uM tc6987
  YFP fluorescence quenching using TC-6987: −2.41
  percent quench of YFP fluorescence, 30 nM TC-6683: −13.84%
  percent quench of YFP fluorescence, 300 nM TC-6683: −20.66%
  percent quench of YFP fluorescence, 3 uM TC-6683: −17.86%
  percent quench of YFP fluorescence, 30 uM TC-6683: −18.91%
  percent quench of YFP fluorescence, 100 uM TC-6683: −16.88%
  percent quench of YFP fluorescence, 10 uM ach: −9.13%
  percent quench of YFP fluorescence, 100 uM ach: −9.29%
  percent quench of YFP fluorescence, 1 mM ach: 0.57%
  percent quench of YFP fluorescence, 3 mM ach: 35.37%
